Molecular target: the molecule itself
Experiment: cryo-EM structure; single-particle cryo-EM of DrBphP-DrRR in the Pr state: 780 nm far-red light on the grid; 1-1.5 mg/ml protein with 10 mM CaCl2, 10 mM MgCl2, 4 mM AMP-PNP; Vitrobot at 4 °C; no symmetry imposed

B1: DrBphP-DrRR fusion protein (Deinococcus radiodurans phytochrome fused to its response regulator by a 12 amino acid tether) (other)
chain: MSRDPLPFFPPLYLGGPEITTENCEREPIHIPGSIQPHGALLTADGHSGEVLQMSLNAATFLGQEPTVLRGQTLAALLPEQWPALQAALPPGCPDALQYRATLDWPAAGHLSLTVHRVGELLILEFEPTEAWDSTGPHALRNAMFALESAPNLRALAEVATQTVRELTGFDRVMLYKFAPDATGEVIAEARREGLHAFLGHRFPASDIPAQARALYTRHLLRLTADTRAAAVPLDPVLNPQTNAPTPLGGAVLRATSPMHMQYLRNMGVGSSLSVSVVVGGQLWGLIACHHQTPYVLPPDLRTTLEYLGRLLSLQVQVKEAADVAAFRQSLREHHARVALAAAHSLSPHDTLSDPALDLLGLMRAGGLILRFEGRWQTLGEVPPAPAVDALLAWLETQPGALVQTDALGQLWPAGADLAPSAAGLLAISVGEGWSECLVWLRPELRLEVAWGGATPDQAKDDLGPRHSFDTYLEEKRGYAEPWHPGEIEEAQDLRDTLTGALGERLSVIRDLNRALTQSNAEWRQYGFVISHHMQEPVRLISQFAELLTRQPRAQDGSPDSPQTERITGFLLRETSRLRSLTQDLHTYTALLSAPPPVRRPTPLGRVVDDVLQDLEPRIADTGASIEVAPELPVIAADAGLLRDLLLHLIGNALTFGGPEPRIAVRTERQGAGWSIAVSDQGAGIAPEYQERIFLLFQRLGSLDEALGNGLGLPLCRKIAELHGGTLTVESAPGEGSTFRCWLPDAGPLPGAADAASSAGGSAGSAGMPERASVPLRLLLVEDNAADIFLMEMALEYSSVHTELLVARDGLEALELLEQAKTGGPFPDLILLDLNMPRVDGFELLQALRADPHLAHLPAIVLTTSNDPSDVKRAYALQANSYLTKPSTLEDFLQLIERLTAYWFGTAAIPQTYQPQ
modifications: biliverdin (BV) chromophore; lysate incubated with a molar excess of biliverdin hydrochloride
notes: 938-aa construct in pET21b(+), counting the N-terminal T7-tag and the C-terminal His6-tag; Models were built up to Leu591 (Pr) and for residues 22-521 (Pfr); also called full-length DrBphP-DrRR; source: E. coli BL21 (DE3), purified (NiNTA, size-exclusion chromatography)
stoichiometry N: 2

B2: Phytochrome from Deinococcus radiodurans (DrBphP), as the phytochrome part of the DrBphP-DrRR fusion (enzyme)
chain: MSRDPLPFFPPLYLGGPEITTENCEREPIHIPGSIQPHGALLTADGHSGEVLQMSLNAATFLGQEPTVLRGQTLAALLPEQWPALQAALPPGCPDALQYRATLDWPAAGHLSLTVHRVGELLILEFEPTEAWDSTGPHALRNAMFALESAPNLRALAEVATQTVRELTGFDRVMLYKFAPDATGEVIAEARREGLHAFLGHRFPASDIPAQARALYTRHLLRLTADTRAAAVPLDPVLNPQTNAPTPLGGAVLRATSPMHMQYLRNMGVGSSLSVSVVVGGQLWGLIACHHQTPYVLPPDLRTTLEYLGRLLSLQVQVKEAADVAAFRQSLREHHARVALAAAHSLSPHDTLSDPALDLLGLMRAGGLILRFEGRWQTLGEVPPAPAVDALLAWLETQPGALVQTDALGQLWPAGADLAPSAAGLLAISVGEGWSECLVWLRPELRLEVAWGGATPDQAKDDLGPRHSFDTYLEEKRGYAEPWHPGEIEEAQDLRDTLTGALGERLSVIRDLNRALTQSNAEWRQYGFVISHHMQEPVRLISQFAELLTRQPRAQDGSPDSPQTERITGFLLRETSRLRSLTQDLHTYTALLSAPPPVRRPTPLGRVVDDVLQDLEPRIADTGASIEVAPELPVIAADAGLLRDLLLHLIGNALTFGGPEPRIAVRTERQGAGWSIAVSDQGAGIAPEYQERIFLLFQRLGSLDEALGNGLGLPLCRKIAELHGGTLTVESAPGEGSTFRCWLPDAGPLPGAADA
modifications: biliverdin (BV) chromophore; lysate incubated with a molar excess of biliverdin hydrochloride
notes: see m1; also called full-length DrBphP; source: E. coli BL21 (DE3), purified (NiNTA, size-exclusion chromatography), as part of the fusion m1
binding result: binds

From PMC9744887, “Structural mechanism of signal transduction in a phytochrome histidine kinase” (Nature Communications, 2022)
